Source: patent publication US20180320177A1, “COMPOSITIONS AND METHODS FOR THE TREATMENT OF LIVER FIBROSIS” (UNIVERSITY OF CONNECTICUT, priority 2015, published 2018)

What was measured:
HMGB2 protein [1] = assay: Inhibition of HMGB2 protein by miRNAs in human and mouse cells; format: cell-based
Method: (§1) Western Blotting: Total protein lysates were prepared from livers and cells in lysis buffer containing 50 mM Tris, pH 8.0, 1% Nonidet™ P-40, 150 mM NaCl, 0.5% sodium deoxycholate, 0.1% SDS with protease inhibitors (Thermo Fisher Scientific) and subjected to immunoblotting. Nuclear and cytoplasmic subcellular fractions were prepared using NE-PER nuclear and cytoplasmic extraction reagents (Pierce) according to the manufacturer's instructions. The blot was incubated with a primary antibody, followed by a secondary antibody conjugated to horseradish peroxidase. ECL kit (Pierce) was used to detect the reactivity. The following antibodies were obtained from Cell Signaling Technology: HMGB2, HMGB1, AKT, p-AKT, mTOR, p-mTOR, ERK1/2, pERK1/2, Raptor, Rictor, p53, p21, p-Bad, Smad4, p-Smad2/3, Lamin A/C, a-SMA, MMP2, MMP9, TIMP1, RhoA, Rho-GTP, Cdc42, Rac1/2/3. Anti-HA antibody and anti-beta actin antibody were purchased from Sigma and Santa Cruz Biotechnology, respectively.
(§2) Cell culture, Cell transfection:HEK293T, Hela, Hep3B and MHCC97H cells were cultured and transfected using X-tremeGENE™ HP DNA transfection reagent (Roche) as described previously. CGR8 ES cells were cultured on 0.1% gelatin coated tissue-culture dish in knockout DMEM medium containing 15% ES qualified-Fetal Bovine Serum, 2 mM L-glutamin, 0.1 mM NEAA, 0.1 mM β-mercaptoethanol, 50 μg/ml penicillin-streptomycin and 10 ng/ml Leukemia inhibitory factor (LIF). TIC cells were cultured in DMEM-F12 medium containing Embryomax nucleotides, 2 mM L-glutamin, 0.1 mM NEAA, 20 ng/ml mouse EGF, 50 μg/ml penicillin-streptomycin and […].
We identified conserved binding sites for miR-539, miR-543, miR-181c, and miR-23α in human and mouse HMGB2 3′UTRs (not sho4wn). We tested the inhibition of HMGB2 protein by these miRNAs in both human and mouse cells. […]

MMP and Rho signaling = assay: Western blot of MMP and Rho signaling in TIC cells; format: cell-based; conditions: TIC cells, miR-127 lentivirus versus GFP (FIG. 15B)
Method: as §1
Cell Lines The LX-2 human stellate cell line was maintained in Dulbecco's Modified Eagle's Medium (DMEM) supplemented with 2% fetal bovine serum (FBS), 100 IU/ml penicillin, and 100 μg/ml streptomycin. Human hepatocellular carcinoma (HCC) MHCC97H cells were maintained in DMEM supplemented with 10% FBS, 100 IU/ml penicillin, and 100 μg/ml streptomycin, 1 mM HEPES, 1 mM sodium pyruvate, 2 mM L-glutamine. Tumor-initiating (TIC) cells were obtained from Dr. Hidekazu Tsukamoto at University of Southern California and were maintained in 1:1 DMEM:F12 supplement with 100 U/ml penicillin and 100 μg/ml streptomycin, 2 mM glutamine, 20 ng/ml mouse EGF, 10 nM dexamethasone, 1× embryomax nucleotides. All the cells were maintained at 37° C. humidified atmosphere with 5% CO2. TIC cells were infected with Hmgb2 shRNA lentivirus for 48 hr, and treated with 500 ng/ml puromycin for 2 weeks. The stable cells were used for migration and invasion assay, as well as western blot.

TIC cells = assay: TIC cell spheroid assay; format: cell-based; conditions: TIC cells infected with miR-127 lentivirus (FIG. 15C)
Method: TIC cells were trypsinized into single cells and 1000 cells were suspended in serum free TIC medium with 1% methylcellulose supplemented with B27, 20 ng/ml EGF and 20 ng/ml FGF in each well of 96-well ultralow attachment plate.

CGR8 ES cells [2] = assay: CGR8 ES cell differentiation and EB formation; format: cell-based, mouse; conditions: knockdown of HMGB2 (summary)
Method: as §2
(§3) ES cells EB formation and TICs spheroid assay: CGR8 ES cells were trypsinized into single cells and cultured in ES medium devoid of LIF in hanging drops (900 cells per EB) for 2 d and transferred to ultralow attachment plate for a further 2 d suspension culture. Then, EBs were plated onto gelatin coated tissue-culture plate for further 7 d spontaneously differentiation.
FIGS. 10A-C show the establishment of CGR8 cell culture and differentiation. […] Undifferentiated feeder-free CGR8 ES cells were maintained on 0.1% gelatin coated 6-cm tissue-culture dish in ES medium containing 10 ng/ml Leukemia inhibitory factor (LIF). For EB formation, CGR8 ES cells were trypsinized into single cells and cultured in ES medium devoid of LIF in hanging drops (900 cells per EB) for 2 d and in suspension culture for a further 2 d. Then, EBs were transferred onto gelatin coated tissue-culture plate for further spontaneously differentiation. ES withdraw LIF 2d, CGR8 ES cells were cultured in ES medium devoid of LIF for 2 d.
FIG. 14A is Left, Western blot of HMGB2 and SOX2 protein in HEK293T cells transfected with 0.5 μg […] expression plasmid and 0, 1 or 2 μg Flag-HMGB2 expression plasmid. Right, Western blot of HMGB2 and OCT4 protein in HEK293T cells transfected with 0.5 μg HA-OCT4 expression plasmid and 0, 1 or 2 μg Flag-HMGB2 expression plasmid. […] CGR8 cells were lysed, co-immunoprecipitated with OCT4 antibody, followed by Western blot with HMGB2 or OCT4 antibodies. FIG. 14 C is a luciferase reporter assay. HepG2 cells were infected with AAV8-GFP or AAV8-HMGB2 24 hrs before being transfected with 6*OS luciferase reporter and OCT4, SOX2 expression plasmids alone or in combination.

HMGB2 3′UTR = HMGB2 3′UTR luciferase reporter assay in HEK293T cells; format: cell-based, human; conditions: 0, 75 or 150 ng miR-127 (FIG. 12A-12B)
Method: Luciferase reporter assay: 48 h after transfection with luciferase reporter plasmid and Renilla plasmid, cells were harvested and analyzed with the Dual-Luciferase reporter assay system (Promega) as described. All assays were done in triplicates, and all values were normalized for transfection efficiency against Renilla luciferase activities.
FIG. 12A is a sequence alignment of miR-127 and the 3′-UTR of HMGB2 in human, mouse and rat. The seed match region is indicated by underline. mut, mutant FIG. 12B is a Luciferase reporter assay. Left, HEK293T cells were transfected with HMGB2 3′UTR luciferase reporter with 0, 75 or 150 ng miR-127; Middle, HEK293T cells were transfected with wild-type or mutant HMGB2 3′UTR with or without 150 ng miR-127. Right, HEK293T cells were transfected with HMGB2 3′UTR with or without miR-127 antagomir. Luciferase activity was normalized to Renilla activity. In FIG. 12C, Western blotting was performed to determine endogenous HMGB2 protein in Hela cells that were transfected with pTarget, pTarget-miR-433, or pTarget-miR-127. β-Actin served as an internal control. In FIG. 12D, Left, western blot was performed to determine HMGB2 and CREB protein level in MHCC97H cells transfected with miR-127 for 24 hrs. Right, qPCR analysis of miR-127 level in MHCC97 cells transfected with miR-127 for 0, 24, 48 hrs. […]

HMGB2 protein [3] = assay: Western blot of HMGB2 protein in HCC cells transfected with miR-127; format: cell-based, human; conditions: HCC cells transfected with miR-127 (FIGS. 12C-F)
Method: as §1
Cell culture, Cell transfection:HEK293T, Hela, Hep3B and MHCC97H cells were cultured and transfected using X-tremeGENE™ HP DNA transfection reagent (Roche) as described previously. […]

CGR8 ES cells [4] = assay: qPCR of ES markers and three-germ layer genes in CGR8 ES cells and EBs; format: cell-based, mouse; conditions: miR-127 lentivirus versus GFP; CGR8 ES cells and 4d EBs
Method: RNA Isolation and Analysis: RNA was isolated using TRIzol® (Thermo Fisher) according to the manufacturer's instructions. For quantitative real time RT-PCR (q-PCR), RNA was reverse transcribed using iScript™ cDNA Synthesis Kit (Bio-Rad). The resultant cDNA was amplified and quantified using SsoAdvance™ Universal SYBR® Green Supermix (Bio-Rad) in CFX384 Touch™ Real-Time PCR Detection System (BioRad). qPCR was performed in triplicate for each sample and repeated at three times. Ct values were used to calculate the relative expression level normalized to the levels of Hprt1 or beta-actin expression.
as §3
(§4) Right, western blot of HMGB2, RhoA, CDC42, Rac1/2/3 in TIC cells which were infected with miR-127 or GFP lentivirus.

HMGB2 protein [5] = assay: Western blot of HMGB2 in TIC cells infected with miR-127 lentivirus; format: cell-based; conditions: miR-127 lentivirus versus GFP (FIG. 15B)
Method: as §1, §4

[6] = miRNA overexpression, Huh7, HEK293T, Hepa1, or TIC (FIG. 11)

B1: miR-543: microRNA, accession number NR_030619.1, SEQ ID NO: 6 (nucleic acid, listed as Homo sapiens)
chain: TACTTAATGAGAAGTTGCCCGTGTTTTTTTCGCTTTATTTGTGACGAAACATTCGCGGTGCACTTCTTTTTCAGTATC
modifications: expressed or natural sequence
HMGB2 protein [1]; [6]
  HMGB2 protein: decreased

B2: miR-539: microRNA, accession number NR_030256.1, SEQ ID NO: 5 (nucleic acid, listed as Homo sapiens)
chain: ATACTTGAGGAGAAATTATCCTTGGTGTGTTCGCTTTATTTATGATGAATCATACAAGGACAATTTCTTTTTGAGTAT
modifications: expressed or natural sequence
HMGB2 protein [1]; [6]
  HMGB2 protein: decreased
HMGB2 protein [1]; only in Huh7
  HMGB2 protein: inhibited

B3: miR-127: microRNA, accession number NR_029696.1, SEQ ID NO: 4; targets the HMGB2 3′UTR (nucleic acid, listed as Homo sapiens)
chain: TGTGATCACTGTCTCCAGCCTGCTGAAGCTCAGAGGGCTCTGATTCAGAAAGATCATCGGATCCGTCTGAGCTTGGCTGGTCGGAAGTCTCATCATC
modifications: expressed or natural sequence
MMP and Rho signaling
  Rhos/CDC42/Rac signaling: downregulates
TIC cells
  spheroid formation: downregulates
CGR8 ES cells [2]
  CGR8 differentiation: promotes CGR8 differentiation
HMGB2 3′UTR
  targeting of HMGB2 3′UTR (luciferase reporter): targets the HMGB2 3′UTR
HMGB2 protein [3]
  HMGB2 protein: decreases HMGB2 protein
CGR8 ES cells [4]
  differentiation markers (Bmp5, Foxa2): increases
  stem cell marker (Oct4, Nanog, Sox2) expression: decreases
HMGB2 protein [5]
  HMGB2 protein: downregulates
